By EC50 (read off the curve) is commonly meant the concentration needed to bring the measured effect to its halfway point. The term EC50 denotes the concentration giving half of the maximal effect. As usually defined, the Kd is the concentration at which binding is half-saturated. For orientation: koff means the first-order rate constant of dissociation. One may read the kon as the rate constant with which the complex forms.

Experiment [1] deals with human CD73 on SK-OV-3 cells (human ovarian adenocarcinoma cells) (human) (UniProt P21589). Description: flow cytometry on SK-OV-3 cells, anti-hFc-APC.
Experiment [2] has the same target. Description: flow cytometry on SK-OV-3 cells. A general note: Flow cytometry measures light scatter and fluorescence of single cells or particles in a stream.
Experiment [3] has as its target monkey CD73 on CHOK1-cynoCD73 cells (monkey). Description: flow cytometry on CHOK1-cynoCD73 cells.
The target in experiment [4] is human CD73 on SK-OV-3 cells (human ovarian adenocarcinoma cells) (human) (UniProt P21589). Description: flow cytometry on SK-OV-3 cells, anti-hFc-APC. This is another data set of the same source.
Experiment [5] shares this target. Description: flow cytometry on SK-OV-3 cells, anti-hFc-APC. This is another data set of the same source.
Experiment [6] shares this target. Description: flow cytometry on SK-OV-3 cells. This is another data set of the same source.
Experiment [7] has the same target. Description: flow cytometry on SK-OV-3 cells. The source holds these as a separate data set.
For experiment [8], the target named is T1, monkey CD73 on CHOK1-cynoCD73 cells (monkey, UniProt A0A2K5V5U7 27-549, GPI anchor at the C-terminus of the mature chain (paragraph 3 says CD73 is GPI-anchored). The propeptide 550-574 is removed.).
T1 construct: also called CHOK1-cyno73 cells; monkey CD73 positive cells
T1 sequence: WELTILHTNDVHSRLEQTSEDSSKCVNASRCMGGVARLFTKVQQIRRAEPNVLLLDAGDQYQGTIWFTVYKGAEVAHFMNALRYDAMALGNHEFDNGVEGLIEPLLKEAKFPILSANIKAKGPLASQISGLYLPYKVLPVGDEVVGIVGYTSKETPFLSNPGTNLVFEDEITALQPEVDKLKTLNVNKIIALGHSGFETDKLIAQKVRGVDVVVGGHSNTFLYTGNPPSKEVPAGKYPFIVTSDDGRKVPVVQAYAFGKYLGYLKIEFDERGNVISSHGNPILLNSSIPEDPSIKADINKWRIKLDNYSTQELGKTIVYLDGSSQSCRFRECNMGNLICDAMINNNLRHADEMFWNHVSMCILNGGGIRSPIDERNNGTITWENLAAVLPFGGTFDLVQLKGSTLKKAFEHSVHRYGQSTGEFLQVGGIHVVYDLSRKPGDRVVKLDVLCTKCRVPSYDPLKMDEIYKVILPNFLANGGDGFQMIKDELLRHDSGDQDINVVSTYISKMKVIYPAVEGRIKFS
Description: flow cytometry on CHOK1-cynoCD73 cells. How it is done: The full length of monkey CD73 was constructed on a eukaryotic expression vector containing NEO resistance, CHO-K1 cells were transfected, G418 was used for screening to obtain a CHOK1-cynoCD73 cell strain. 4×10⁵ CHOK1-cynoCD73 cells were taken and a gradient diluted CQ137 protein was added, after incubation was performed for 1 h, the cells were washed with PBS for three times, […] (purchased from Jackson Immunology) was added, and detected by flow cytometry.

In experiment [9] the target is T2, human CD73 on SK-OV-3 cells (human ovarian adenocarcinoma cells) (human, UniProt P21589 27-549).
T2 construct: whole, on cells; also called human CD73 positive cells
T2 sequence (looked up): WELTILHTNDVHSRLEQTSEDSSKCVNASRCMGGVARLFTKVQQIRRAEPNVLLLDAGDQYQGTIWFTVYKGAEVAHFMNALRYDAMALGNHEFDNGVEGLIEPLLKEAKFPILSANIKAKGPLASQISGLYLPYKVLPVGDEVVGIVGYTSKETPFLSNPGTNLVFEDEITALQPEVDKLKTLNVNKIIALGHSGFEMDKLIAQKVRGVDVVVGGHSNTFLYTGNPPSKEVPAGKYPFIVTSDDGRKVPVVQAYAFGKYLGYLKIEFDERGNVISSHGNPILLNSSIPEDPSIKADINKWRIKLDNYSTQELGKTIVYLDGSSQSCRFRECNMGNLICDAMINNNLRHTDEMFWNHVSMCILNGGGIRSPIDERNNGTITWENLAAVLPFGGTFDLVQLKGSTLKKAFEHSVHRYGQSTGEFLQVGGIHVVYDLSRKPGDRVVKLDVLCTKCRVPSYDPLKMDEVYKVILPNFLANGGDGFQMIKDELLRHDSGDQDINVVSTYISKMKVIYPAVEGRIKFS
Description: flow cytometry on SK-OV-3 cells. How it is done: 4×10⁵ cells SK-OV-3 were taken, triple gradient (0.009-20 μg/ml) dilution of CQ137 protein was added, incubated for 1 h, washed three times with PBS, Anti-hFC-APC (purchased from Jackson immunology) was added, and detected by flow cytometry.

The target of experiment [10] is T1, monkey CD73 on CHOK1-cynoCD73 cells. Description: cell-based or functional assay.
The target of experiment [11] is T2, human CD73 on SK-OV-3 cells (human …). Description: cell-based or functional assay.
Experiment [12] deals with T3, recombinant monkey CD73 protein (monkey, UniProt A0A2K5V5U7 27-549).
T3 construct: Monkey species not further named for the recombinant protein (the cell line is called cynoCD73)
T3 sequence: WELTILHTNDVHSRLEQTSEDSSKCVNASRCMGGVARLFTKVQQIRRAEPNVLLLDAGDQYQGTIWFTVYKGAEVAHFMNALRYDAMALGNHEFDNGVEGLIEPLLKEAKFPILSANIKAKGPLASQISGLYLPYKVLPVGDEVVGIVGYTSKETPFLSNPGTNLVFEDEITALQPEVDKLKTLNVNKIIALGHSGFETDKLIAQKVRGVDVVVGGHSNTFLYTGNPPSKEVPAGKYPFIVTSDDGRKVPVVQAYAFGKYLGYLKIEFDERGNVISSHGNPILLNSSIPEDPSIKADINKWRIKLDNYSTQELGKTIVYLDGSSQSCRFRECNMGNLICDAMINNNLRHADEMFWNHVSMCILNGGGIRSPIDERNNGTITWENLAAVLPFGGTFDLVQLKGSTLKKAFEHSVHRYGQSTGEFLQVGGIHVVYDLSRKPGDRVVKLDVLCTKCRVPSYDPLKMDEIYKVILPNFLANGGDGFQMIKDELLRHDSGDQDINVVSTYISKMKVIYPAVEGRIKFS
Description: ELISA, recombinant monkey CD73 coated at 3 ug/mL. How it is done: (§1) The recombinant monkey CD73 protein was packaged in plates according to a 3 μg/mL and a gradient diluted CQ137 was added.
For orientation: In an ELISA, binding on a coated surface is turned into a signal by an enzyme label.

Experiment [13] deals with T4, recombinant human CD73 protein (human, UniProt P21589 27-547, limits assumed).
T4 construct: Bought recombinant protein; the assays only say recombinant human CD73; also called rhCD73; recombinant hCD73 protein
T4 sequence (looked up): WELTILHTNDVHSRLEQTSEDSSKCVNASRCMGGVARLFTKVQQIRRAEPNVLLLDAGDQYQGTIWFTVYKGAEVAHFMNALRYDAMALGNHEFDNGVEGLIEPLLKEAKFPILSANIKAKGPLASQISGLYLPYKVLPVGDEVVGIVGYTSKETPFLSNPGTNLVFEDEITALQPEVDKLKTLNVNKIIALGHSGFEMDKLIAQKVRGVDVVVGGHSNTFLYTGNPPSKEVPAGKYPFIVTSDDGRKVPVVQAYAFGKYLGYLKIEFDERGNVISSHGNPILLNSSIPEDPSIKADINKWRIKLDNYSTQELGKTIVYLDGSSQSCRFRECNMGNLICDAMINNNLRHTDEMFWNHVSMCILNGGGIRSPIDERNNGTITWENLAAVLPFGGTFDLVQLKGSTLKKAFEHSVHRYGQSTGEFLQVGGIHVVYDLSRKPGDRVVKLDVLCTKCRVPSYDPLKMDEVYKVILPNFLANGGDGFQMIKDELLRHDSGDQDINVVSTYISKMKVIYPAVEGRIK
Description: Biacore (SPR), CQ137 immobilised, CD73 protein 2.5 nM-40 nM. How it is done:
The affinity of CQ137 to recombinant hCD73 protein was determined by Biacore, CQ137 was cured.

In experiment [14] the target is T3, recombinant monkey CD73 protein. Description: ELISA, plate coated with recombinant monkey CD73 at 3 µg/mL. How it is done:
as §1

Like-named read-outs stand apart in the source and are kept apart here.

As to “MEDI-9447 of AstraZeneca(AZ)/Medimmune (antibody)”, the concentration for a half-maximal effect (EC50 (read off the curve)) worked out at 100 ng/mL in [1], 2 ng/mL in experiment [3], 30 ng/mL in experiment [4] and 20 ng/mL in experiment [5]. For the same molecule, the EC50 in [2] was determined as 33.6 ng/mL; in experiment [3], 4.12 ng/mL; in [6] it was 23500 ng/mL; in [7] it was 9.63 ng/mL.

B1: CQ137 antibody protein (human mouse chimeric anti-CD73 full-length antibody) (antibody, human IgG1, kappa, V domains shown)
VH: EVQLQQSGPELVKPGASVKISCKASGYSFTGYYIHWVKQSHVKSLEWIGRINPYNGATTYNQNFKDKASLTVDKSSSTAYMELHSLTSEDSAVYYCARFHYGAPDYWGQGTTLTVSS
VL: DILMTQSPSSMYASLGERVTITCKASQDINTYLTWFQQKPGKSPKTLIYRANILVDGVPSRFSGSGSGQDYSLTISSLEFEDMGIYYCLQYDEFPLTFGAGTKLELKR
In the case of B1, the EC50 in [8] amounted to 0.0999 ng/mL; in [9], 0.588 ng/mL; in [14], 217 ng/mL. Moreover, in experiment [10], the “IC50 of inhibition of CD73 enzyme activity on CHOK1-cynoCD73 cells” value was determined as 990 ng/mL. In addition, the “IC50 of inhibition of CD73 enzyme activity on SK-OV-3 cells” value in [11] was determined as 371 ng/mL. Moreover, the “EC50 (read off the curve)” value in experiment [12] was about 200 ng/mL. Moreover, in experiment [13], the Kd is 86.5 pM. Further, in experiment [13], the koff was 6.04e-05 s⁻¹. Also, the association rate constant (kon) in experiment [13] was 698000 M⁻¹ s⁻¹.
